One experiment concerns the target T1, Rab10_(1-175) (human, UniProt P61026 1-175).
T1 sequence: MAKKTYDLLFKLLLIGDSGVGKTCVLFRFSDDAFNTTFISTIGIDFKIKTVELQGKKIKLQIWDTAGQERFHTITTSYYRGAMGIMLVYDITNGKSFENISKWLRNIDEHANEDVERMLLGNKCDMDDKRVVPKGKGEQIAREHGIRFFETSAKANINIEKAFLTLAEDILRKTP
Nature of the experiment: crystal structure.

Experiment [1] has as its target T2, Mical1 MO-CH-LIM (residues 1-781) (human, UniProt Q8TDZ2 1-781).
T2 sequence: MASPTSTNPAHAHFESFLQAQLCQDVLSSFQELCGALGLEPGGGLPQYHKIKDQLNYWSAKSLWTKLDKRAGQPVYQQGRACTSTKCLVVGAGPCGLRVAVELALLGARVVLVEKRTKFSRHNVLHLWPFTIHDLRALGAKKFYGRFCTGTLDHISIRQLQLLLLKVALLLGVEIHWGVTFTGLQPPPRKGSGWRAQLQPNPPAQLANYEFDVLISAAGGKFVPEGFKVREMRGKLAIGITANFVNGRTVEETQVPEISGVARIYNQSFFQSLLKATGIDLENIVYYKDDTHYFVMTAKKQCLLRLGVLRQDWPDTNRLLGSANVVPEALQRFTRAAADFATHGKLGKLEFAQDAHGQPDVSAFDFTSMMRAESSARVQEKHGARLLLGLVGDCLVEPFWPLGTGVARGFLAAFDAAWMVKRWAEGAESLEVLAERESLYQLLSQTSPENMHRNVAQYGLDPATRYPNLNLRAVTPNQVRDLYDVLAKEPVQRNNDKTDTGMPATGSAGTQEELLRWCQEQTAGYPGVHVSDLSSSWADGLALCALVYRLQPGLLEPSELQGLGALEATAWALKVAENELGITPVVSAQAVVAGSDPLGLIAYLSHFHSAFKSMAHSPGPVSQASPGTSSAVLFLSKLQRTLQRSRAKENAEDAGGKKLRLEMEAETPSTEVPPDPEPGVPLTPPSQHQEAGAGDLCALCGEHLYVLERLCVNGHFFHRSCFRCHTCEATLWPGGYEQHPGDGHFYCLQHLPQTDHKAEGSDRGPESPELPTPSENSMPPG
Nature of the experiment: ITC. On the technique in general: In ITC the heat of successive injections is recorded.

Another experiment addresses T3, Rab8a_(1-176) (human, UniProt P61006 1-176).
T3 sequence: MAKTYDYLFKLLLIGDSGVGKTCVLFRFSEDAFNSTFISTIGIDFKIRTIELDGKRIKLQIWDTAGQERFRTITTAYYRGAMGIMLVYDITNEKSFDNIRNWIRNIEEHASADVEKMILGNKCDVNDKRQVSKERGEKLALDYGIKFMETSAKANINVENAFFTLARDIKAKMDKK
Nature of the experiment: ITC.

B1: bMERB_(V978A) (domain or fragment)
chain: KEEEMKRFCKAQTIQRRLNEIEAALRELEAEGVKLELALRRQSSSPEQQKKLWVGQLLQLADKKNSLVAEEAELMITVQELNLEEKQWQLDQELRGYMNREENLKTAADRQAEDQVLRKLVDLVNQRDALIRFQEERRLSELALGTGAQG
Turning to B1, the binding result with Rab10_(1-175) and with Rab8a_(1-176) was “binds” each time. The “fold reduction in affinity against wild-type bMERB” value in experiment [1] is 2 fold.

Values taken from doi:10.1101/2024.06.17.599268 (bioRxiv, 2024).
